Consider eight molecules from patent US20260234660A1, “TREATMENT OF MUSCLE RELATED DISORDERS WITH ANTI-HUMAN CACNG1 ANTIBODIES” (Regeneron Pharmaceuticals, Inc., priority 2023, published 2026).

The target in test [1] is T1, human CACNG1 nanodisc (Homo sapiens, UniProt Q06432).
T1 construct: made in house
As to the kind of experiment: Biacore binding kinetics of anti-CACNG1 monoclonal antibodies to human CACNG1 nanodisc, antigen capture format. The note with it: 25° C., 1:1 binding model. The procedure:
Equilibrium dissociation constants (KD values) for nanodisc embedded human CACNG1 expressed with a C-terminal PADRE-Flag-His tag (human CACNG1 nanodisc) binding to purified anti-hCACNG1 antibodies were determined using a real-time surface plasmon resonance biosensor technology with a Biacore T200 instrument. The CM5 Biacore sensor surface was derivatized by amine coupling with a monoclonal mouse anti-His antibody (Cytiva; Marlborough, MA). All Biacore binding studies were performed in a buffer composed of 0.01M HEPES, 0.15M NaCl, 1 mM CaCl2), 0.5 mM MgCl2, pH 7.4 (HBS-N++ running buffer). Different concentrations of anti-hCACNG1 antibodies (ranging from 300 nM to 12 nM in 5-fold serial dilutions) prepared in HBS-N++ running buffer were injected over the captured human CACNG1 nanodisc at a flow rate of 30 μL/minute. Antibody association was monitored for 2 minutes while dissociation was monitored in HBS-N++ running buffer for 5 minutes. At the end of each cycle, the human CACNG1 nanodisc capture surface was regenerated using three 10 second injections of 10 mM Gly pH1.5. All binding kinetics experiments were performed at 25° C.
The specific SPR-Biacore sensorgrams were obtained by a double referencing procedure. The double referencing was performed by first subtracting the signal of each injection over a reference surface (anti-His) from the signal over the experimental surface (anti-His captured human CACNG1 nanodisc) thereby removing contributions from refractive index changes. In addition, running buffer injections were performed to allow subtraction of the signal changes resulting from the dissociation of captured antibodies from the coupled anti-His surface. Kinetic association (ka) and dissociation (kd) rate constants were determined by fitting the real-time sensorgrams to a 1:1 binding model using Scrubber v2.0c curve fitting software. Binding dissociation equilibrium constants (KD) and dissociative half-lives (t1/2) were calculated from the kinetic rate constants as: […]

The test system of test [2] is CACNG1^Hu/Hu myofibers. As to the kind of experiment: Antibody binding to single myofibers ex vivo. The class given is cell-based, mouse. The note with it: 100 nM antibody, 30 minutes. As to the method:
(§1) Following confirmation of CACNG1 antibody binding to human myotubes, a subset of antibodies was tested for binding to fully mature myofibers ex vivo. Single myofibers were isolated from either wildtype mice, mice that were homozygous for the deletion of CACNG1 (referred to as CACNG1 knockout mice), or mice that were homozygous for the expression of human CACNG1 in place of mouse CACNG1 (referred to as CACNG1^Hu/Hu). The gastrocnemius muscle was removed, collagenase digested, and single myofibers were isolated, washed, and incubated overnight at 37° C. at 5% C02, in DMEM+10% horse serum. Following overnight incubation, single myofibers were incubated with 100 nM of each CACNG1 antibody or an isotype control antibody for 30 minutes. Myofibers were then washed twice in DMEM+10% horse serum, and subsequently incubated with 10 ug/mL of fluorescent-conjugated secondary antibodies for 30 minutes, washed twice in DMEM+10% horse serum, and then fixed with 4% paraformaldehyde (PFA) for 15 minutes at room temperature. Single fibers were then washed twice with PBS, stained with Hoechst for 5 minutes, washed once more with PBS, then transferred to microscope slides, coverslipped, and imaged using a Zeiss LSM 710 confocal microscope.

Test [3] relates to wildtype or CACNG1 knockout myofibers. Nature of the test: Antibody binding to single myofibers ex vivo. The format is cell-based, mouse. Conditions: 100 nM antibody, 30 minutes. As to the method: as §1
Test [4] has as its system human myotubes. Nature of the test: Acetylcholine-induced calcium flux assay in human myotubes (FLIPR). The format is cell-based. The note with it: antibody 0.01 μM to 1 μM, 1 hour incubation, 20 uM acetylcholine. As to the method:
CACNG1 is the γ1 subunit of the skeletal muscle specific L-type calcium channel, (dihydropyridine receptor), though genetic deletion of CACNG1 appears to have no major impact on skeletal muscle function. To determine whether antibodies that bind CACNG1 impact muscle function, a calcium flux assay was performed on human myotubes that were incubated with CACNG1 antibodies to determine whether these antibodies affect acetylcholine-induced calcium release.
Human skeletal myoblasts (Cook Myosite, Inc.) were plated at 10,000 cells/well of a 96-well plate and were differentiated for 7 days into myotubes. On the final day of differentiation, media was replaced with 50 μL of FLIPR calcium 5 dye with probenecid (Invitrogen) and 50 uL of assay buffer (0.1% BSA-DMEM) per well. CACNG1 and isotype control antibodies were serial diluted in assay buffer and added to the cells and incubated at 37° C. in a 5% CO2 incubator for 1 hour prior to the calcium flux assay. Nicardipine hydrochloride (Sigma) was added to untreated wells to serve as a control for calcium channel blockade. After 1 hour, acetylcholine (Sigma) was added at a 20 uM final concentration to induce myotube calcium release, and plates were assayed on a FLIPR Tetra (Molecular Devices, LLC).

T1 sequence (Q06432 whole entry): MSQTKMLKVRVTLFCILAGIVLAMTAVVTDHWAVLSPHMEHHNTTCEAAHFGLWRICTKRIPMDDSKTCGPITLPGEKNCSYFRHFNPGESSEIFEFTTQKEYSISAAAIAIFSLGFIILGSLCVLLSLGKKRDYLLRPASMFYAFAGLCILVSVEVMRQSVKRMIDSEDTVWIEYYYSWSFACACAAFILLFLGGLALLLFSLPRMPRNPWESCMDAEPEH

B1: H2aM31941N: anti-hCACNG1 antibody, HCVR/LCVR SEQ ID NOs: 114/122 (antibody, V domains shown)
VH: QVQLVQSGAEVKKPGASVKVSCKASGYAFTTYGITWVRQAPGQGLEWMGWISAYNGNTNYAEKVQGRFTMTTDTSTNTAYMELRSLRSDDTAVYFCARKGHYGSGTYYNPFGFDFWGQGTMVTVSS
VL: EIMLMQSPGTLSLSPGERATLSCRASQSVSSSYLAWYQQKPGQAPRLLIYGASSRATDIPDRFSGSGSGTDFTLTISRLEPEDFAVYFCQQYYGSPWTFGQGTKVEIK
Regarding B1, in test [1], the “ka” value came out at 342000 M⁻¹ s⁻¹ and the “kd” value turned out to be 0.000406 s⁻¹. Also, the “binding to CACNG1^Hu/Hu myofibers ex vivo” value in test [2] was “demonstrated binding to CACNG1^Hu/Hu myofibers ex vivo”. Besides, the “binding to wildtype or CACNG1 knockout myofibers” value in test [3] is reported as “did not bind to wildtype or CACNG1 knockout myofibers”.

B2: REGN10715: anti-hCACNG1 antibody, HCVR/LCVR SEQ ID NOs: 18/26, wildtype hIgG1 (antibody, V domains shown)
VH: QVQLQQWGAGLLKPSATLSRTCAVYGGSFSGYYWNWIRQSPGKGLEWIGEILHSGRTNYNPSLKSRVTISVDTSKNQFSLKLTSVTAADTAVYYCAGRIAARHGWFDPWGQGTLVTVSS
VL: DIQMTQSPSSVSTSVGDRVTISCRASQDIRKWLAWYQQKPGKAPKLLIYATSSLQSGVPSRFSGSGSGTDFTLTISSLQPEDFATYFCQQANSFPFTFGQGTKLEIK
modifications: hIgG1
B2: in test [1], the “ka” value was determined as 152000 M⁻¹ s⁻¹ and the “kd” value is 0.000301 s⁻¹.

B3: REGN10713: anti-hCACNG1 antibody, HCVR/LCVR SEQ ID NOs: 162/170, wildtype hIgG1 (antibody, V domains shown)
VH: EVQLVESGGNLVQPGGSLRLSCAASGFTFTSHAMNWVRQAPGKGLEWVSVITGRGFDTHYADSVKGRFTISRDISKNTLYLQMNSLRAEDTAVYYCAKGLYDSGNYYIDYWGQGTLVTVSS
VL: QSVLTQPPSVSAAPGQKVTISCSGSSSNIGNNYVSWYQQLPGTAPKLLIYDNNKRPSGIPDRFSGSKSGTSATLGITGLQTGDEADYYCGTWDLSLSFNWVFGGGTKLTVL
modifications: hIgG1
In the case of B3, in test [1], the “ka” value turned out to be 74200 M⁻¹ s⁻¹ and the “kd” value was determined as 4.72e-05 s⁻¹.

B4: REGN9909: anti-hCACNG1 antibody, HCVR/LCVR SEQ ID NOs: 146/154 (antibody, V domains shown)
VH: EVQLLESGGGLVQPGGSLRLSCAASGFTFNNYGMSWVRQGPGKGLEWVSSISGSGGTTFYADSVKGRFTISRDNSKNTLYLQMNSLRAEDTAVYYCGKGGYCSSSGCRHYGMDVWGQGTTVTVSS
VL: QSVLTQPPSASGTPGQRVTISCSGSSSNIGNNYIYWYQRLPGTTPKLLIYRNNQRPSGVPDRFSGSKSGTSASLAISGLRSEDEADYYCAAWDDTLSGYVFGTGTKVTVL
In the case of B4, in test [1], the “ka” value stood at 331000 M⁻¹ s⁻¹ and the “kd” value was 0.00137 s⁻¹.

B5: REGN10717: anti-hCACNG1 antibody, HCVR/LCVR SEQ ID NOs: 34/42, wildtype hIgG1 (antibody, V domains shown)
VH: QVQLVESGGGVVQPGRSLRLSCAASGFTFSTYGMHWVRQAPGKGLEWVAVIWHDGSDKYYVDSVKGRFSIARDNSKNTLYLQMNSLRVEDTGIYYCARRGIRGTVFDHWGLGTLVTVSS
VL: DIQMTQSPSTLSASVGDRVTLTCRASQSISNKLAWYQQKPGKAPNLLIYKASNLESGVPSRFSGSGSGTEFTLTISSLQPDDFATYYCQQYNSYSWTFGQGTKVEIK
modifications: hIgG1
Consider B5, for which, in test [1], the “ka” value came out at 294000 M⁻¹ s⁻¹ and the “kd” value amounted to 0.0304 s⁻¹.

B6: H2aM31944N: anti-hCACNG1 antibody, HCVR/LCVR SEQ ID NOs: 82/90 (antibody, V domains shown)
VH: QVQLVESGGGVVQPGRSLRLSCEASGITFRNYGMHWVRQAPGKGLEWVAVMWYDGSNKYYADSVKGRFTISRDNSKNTVYLQMNSLRAEDTAVYYCARRGHIATAAPFDYWGQGTLVTVSS
VL: DIQMTQSPSSLSASVGDRVTISCRASQSISSYLNWYQQKPGKAPKVLMYAASSLQSGVPSRFSGSGSGTDFTLTISSLQPEDFATYYCQQSYSTPPITFGQGTRLEIK
On to B6, for which, in test [1], the “ka” value was found to be 231000 M⁻¹ s⁻¹ and the “kd” value worked out at 0.00395 s⁻¹. Further, the “effect on acetylcholine-induced calcium flux” value in test [4] was “do not inhibit acetylcholine-induced calcium flux”.

B7: REGN7660: anti-hCACNG1 antibody, HCVR/LCVR SEQ ID NOs: 130/138 (antibody, V domains shown)
VH: EVQLVESGGGLVQPGGSLKLSCTASGLTLSDSAMHWVRQASGKGLEWVGRIRNKANRYATEYAASVKGRFTISRDDSKNTAYLQMNSLKTEDTAVYYCTRNWKIFLFDYWGQGTLVTVSS
VL: EIVLTQSPGTLTLSPGERATLSCRASQSVGSKYLAWFQQKRGQAPRLLIYGASSRTSGIPDRISGSGSGTDFTLTISRLEPEDFAVYYCQQYGSSPWTFGQGTKVEIK
With B7, in test [1], the “ka” value is 1.93e+06 M⁻¹ s⁻¹ and the “kd” value stood at 0.0243 s⁻¹.

B8: REGN10716: anti-hCACNG1 antibody, HCVR/LCVR SEQ ID NOs: 50/58, wildtype hIgG1 (antibody, V domains shown)
VH: QVQLQESGPGLVKPSETLSLTCTVSGDSINNYYWTWLRQPPGKGLEWIGYIYYSGSANYNPSLKSRVTISVDTSKNQFSLKLNSVTAADTAVYYCARGAVKYFRHWGQGTLVTVSS
VL: EIVLTQSPGTLSLSPGERATLSCRASQTINHNNLAWYQQRPGQAPRLLIYGASNRATAIPDRFSGSGSGTDFTLTISRLEPEDFEVYSCQQYGSLPLTFGGGTKVEIK
modifications: hIgG1
On to B8, for which, in test [1], the “ka” value worked out at 730000 M⁻¹ s⁻¹ and the “kd” value was determined as 8.36e-05 s⁻¹.
